Laboratory results as given in the supplement of paper PMC7125110.
± gives the standard error. This sample holds only a part of the variants without activity.

B1: glmS ribozyme (parent)
chain: AUAAAAGCGCCAGAACUACAGAAAUGUAGUUGACGAGGAGGAGGUUUAUCGAAUUUUCGGCGGAUGCCUCCAAA

What was measured:
Conditions in all cases: with glucosamine-6-phosphate
glucosamine-6-phosphate [1] = variants of: B1; experiment: self-cleavage kobs at 40 uM GlcN6P; higher = faster cleavage; RNA array
Summary of the method: (§1)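 Glucosamine-6-phosphate in HEPES/KCl/Mg(OAc)2 buffer, at 40 μM to 10 mM, was flowed over barcoded ribozyme variants transcribed in situ by E. coli RNA polymerase on sequenced MiSeq chips. Tracking was through a hybridised Cy3 probe at 37 °C. kobs, kcat and KM came from exponential decay fits and weighted Michaelis–Menten fits of normalised per-tile medians.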

glucosamine-6-phosphate [2] = variants of: B1; experiment: self-cleavage kobs at 160 uM GlcN6P; higher = faster cleavage; RNA array
Summary of the method: as §1

glucosamine-6-phosphate [3] = variants of: B1; experiment: self-cleavage kobs at 640 uM GlcN6P; higher = faster cleavage; RNA array
Summary of the method: as §1

glucosamine-6-phosphate [4] = variants of: B1; experiment: self-cleavage kobs at 10000 uM GlcN6P; higher = faster cleavage; RNA array
Summary of the method: as §1

glucosamine-6-phosphate [5] = variants of: B1; experiment: self-cleavage kobs at 2500 uM GlcN6P; higher = faster cleavage; RNA array
Summary of the method: as §1

Row | Variant | self-cleavage kobs at 40 uM GlcN6P (glucosamine-6-phosphate [1]) | self-cleavage kobs at 160 uM GlcN6P (glucosamine-6-phosphate [2]) | self-cleavage kobs at 640 uM GlcN6P (glucosamine-6-phosphate [3]) | self-cleavage kobs at 10000 uM GlcN6P (glucosamine-6-phosphate [4]) | self-cleavage kobs at 2500 uM GlcN6P (glucosamine-6-phosphate [5])
1 | AUAAAAGCGCCAGAGCUACAGAAAUGUAGUUGACGAGGAGGAUGUUUAUCGACUUUUCGGCGGAUGCCUCCAAA [A15G G43U A53C] | < 1e-05 s⁻¹ |  |  |  | 
2 | AUAAAAGCGCCAGAUCUACAGAAAUGUAGUUGACGAGGAGGAUGUUUAUCGAAUUUUCGGCGGAUGCCUCCAAA [A15U G43U] | < 1e-05 s⁻¹ | < 1e-05 s⁻¹ | < 1e-05 s⁻¹ | < 1e-05 s⁻¹ | 
3 | AUAAAAGCGCCAGAGCUACAGAAAUGUAGCUGACGAGGAGGAGGUUUAUCGAAUUUUCGGCGGAUGACUCCAAA [A15G U30C C67A] | 0.000291 ± 6.8e-05 s⁻¹ | 0.00105 ± 0.00028 s⁻¹ | 0.00103 ± 0.00029 s⁻¹ | 0.0108 ± 0.0031 s⁻¹ | 0.00517 ± 0.0012 s⁻¹
4 | AUAAAAGCGCCAGAUCUACAGAAAUGUAUUUGACGAGGAGGAGGUUUAUCGAAGUUUCGGCGGAUGCCUCCAAA [A15U G29U U54G] | 7.25e-05 ± 1.8e-05 s⁻¹ |  |  | 0.00243 ± 0.00048 s⁻¹ | 
5 | AUAAAAGCGCCAGAGCUACAGAAAUGUAGUUGACGAGGAGAAGGUUUAUCGAAUUUGCGGCGGAUGCCUCCAAA [A15G G41A U57G] | < 1e-05 s⁻¹ |  |  |  | 
6 | AUAAAAGCGCCAGAUCUACAGAAAUGUAGUUGACGAGUAGGAGGUUUAUGGAAUUUUCGGCGGAUGCCUCCAAA [A15U G38U C50G] | 0.000125 ± 3.7e-05 s⁻¹ |  |  |  | 
7 | AUAAAAGCGCCAGAUCUACAGAAAUGUAGUUGACGAGGAGGAGGUUUAUCGAAUUUUCGGCGGCUGCCUCCAAA [A15U A64C] | < 1e-05 s⁻¹ | < 1e-05 s⁻¹ |  |  | 
8 | AUAAAAGCGCCAGAUAUACAGAAAUGUAGUUGACGAGGAGGAGGUUUAUCGAAUUUUCGUCGGAUGCCUCCAAA [A15U C16A G60U] | < 1e-05 s⁻¹ |  |  | < 1e-05 s⁻¹ | 
9 | AUAAAAGCGCCAGAGCUACAGAAAUGUAGUUGACGAGAAGGGGGUUUAUCGAAUUUUCGGCGGAUGCCUCCAAA [A15G G38A A42G] | < 1e-05 s⁻¹ | < 1e-05 s⁻¹ | < 1e-05 s⁻¹ |  | 
10 | AUAAAAGCGCCAGAGCUACAGAAAUGUAGUUGACGAGGAGGAGGUUAAUAGAAUUUUCGGCGGAUGCCUCCAAA [A15G U47A C50A] | < 1e-05 s⁻¹ |  |  |  | 
11 | AUAAAAGCGCCAGAUCUACAGAAAUGUAGUUGACGAGGAGGAGGUUUAUCGAAUUUUCGAAGGAUUCCUCCAAA [A15U G60A C61A G66U] | < 1e-05 s⁻¹ |  |  |  | 
12 | AUAAAAGCGCCAGAUCUACAGAAAUGUACUUGACGAGGAGGACGUUUAUCGAAUUUUCGGCGGAUGCCUCCAAA [A15U G29C G43C] | < 1e-05 s⁻¹ |  |  |  | 
13 | AUAAAAGCGCCAGAUCUACAGAAAUGUAGUUGACGAGGAUGAGAUUUAUCGAAUUUUCGGCGGAUGCCUCCAAA [A15U G40U G44A] | < 1e-05 s⁻¹ |  |  | < 1e-05 s⁻¹ | 
14 | AUAAAAGCGCCAGAUCUACAGAAAUGUAGUUAACGAGGAGGCGGUUUAUCGAACUGUCGGCGAAUGCCUCCAAA [A15U G32A A42C U54C U56G G63A] | < 1e-05 s⁻¹ |  |  |  | 
15 | AUAAAAGCGCCAGAUCUACAGAAAUGUAGUUGACUAGGAGGAGGUUUAUCGAAUUUUCGGCGGAUGCCUCCAAA [A15U G35U] | < 1e-05 s⁻¹ | < 1e-05 s⁻¹ | < 1e-05 s⁻¹ | < 1e-05 s⁻¹ | < 1e-05 s⁻¹
16 | AUAAAAGCGCCAGAGCUACAGAAAUGUAGUUGACGAGGAGGAGUUUUAUCGAAUUUUCGGCGGAUGCGUCCAAA [A15G G44U C68G] | < 1e-05 s⁻¹ |  |  |  | 
17 | AUAAAAGCGCCAGAGCUACAGAAAUGUAGUUGACGAGGAGGAGGUUUAUCGAAUUUUCGGCGGAUGCCCCCAAA [A15G U69C] | 0.00027 ± 7e-05 s⁻¹ |  | 0.00141 ± 0.00058 s⁻¹ |  | 0.00345 ± 0.0012 s⁻¹

Row | Variant | self-cleavage kobs at 40 uM GlcN6P (glucosamine-6-phosphate [1]) | self-cleavage kobs at 160 uM GlcN6P (glucosamine-6-phosphate [2]) | self-cleavage kobs at 640 uM GlcN6P (glucosamine-6-phosphate [3]) | self-cleavage kobs at 10000 uM GlcN6P (glucosamine-6-phosphate [4]) | self-cleavage kobs at 2500 uM GlcN6P (glucosamine-6-phosphate [5])
18 | AUAAAAGCGCCAGAUCUACAGAAAUGUAGUUGACGAGCAGGAGGUUUAUCGAAUUUUCGGCGGAUUUCUCCAAA [A15U G38C G66U C67U] | < 1e-05 s⁻¹ |  |  | < 1e-05 s⁻¹ | 
19 | AUAAAAGCGCCAGAGCUACAGAAAUGUAGUUGACGAGGAGGAGGUUUACCGAAUUUUCGGCGGAUGCCUCCAAA [A15G U49C] | < 1e-05 s⁻¹ |  | < 1e-05 s⁻¹ |  | 
20 | AUAAAAGCGCCAGAGCUACAGAAAUGUAGAGGACGAGGAGUAGGUUUAUCGAAUUUUCGGCGGAUGCCUCCAAA [A15G U30A U31G G41U] | 0.00015 ± 5.1e-05 s⁻¹ |  |  | 0.000456 ± 0.00017 s⁻¹ | 
21 | AUAAAAGCGCCAGAUCUACAGAAAUGUAGGUGACGAGGAGUAGGUUUAUCGAAUUUUCGGCGGAUGCCUCCAAA [A15U U30G G41U] | 0.000122 ± 2.7e-05 s⁻¹ |  |  | 0.0015 ± 0.00032 s⁻¹ | 0.000705 ± 0.00027 s⁻¹
22 | AUAAAAGCGCCAGAGCUACAGAAAUGUAGUUGACGAGGAGGAGGUUUAUCGAAUUGUCGGCGGAUGCCUCCAAA [A15G U56G] | 0.000419 ± 4.9e-05 s⁻¹ | 0.000989 ± 0.00014 s⁻¹ | 0.00325 ± 0.00045 s⁻¹ | 0.0296 ± 0.0053 s⁻¹ | 0.00559 ± 0.00073 s⁻¹
23 | AUAAAAGCGCCAGAGCUACAGAAAUGUAGUUGACGAGGAGGAGGUUUAUCGAAUGUUCGGCGAAUGCCUCCAAA [A15G U55G G63A] | < 1e-05 s⁻¹ |  |  | < 1e-05 s⁻¹ | 
24 | AUAAAAGCGCCAGAGCUACAGAAAUGUAGUUGACGAGGAGGAGGUUUAUCGAAUUUUCGCCGGAUGCCUCCAAA [A15G G60C] | < 1e-05 s⁻¹ |  |  |  | 
25 | AUAAAAGCGCCAGAAAUACAGAAAUGUAGUUGACGAGGAGGCGGUUUAUCGAAUUUUCGGCGGAUUCCUCCAAA [C16A A42C G66U] | < 1e-05 s⁻¹ |  |  | < 1e-05 s⁻¹ | 
26 | AUAAAAGCGCCAGAUCUACAGAAAUGUAUUUGACGAGGAGGAGGUUUAUCGAAUUUUCGGCGGAUGCCUCGAAA [A15U G29U C71G] | 6.19e-05 ± 2.4e-05 s⁻¹ |  |  | 0.000144 ± 2.7e-05 s⁻¹ | 
27 | AUAAAAGCGCCAGAGCUACAGAAAUGUAGUAGACGUGGAGGAGGUUUAUCGAAUUUUCGGCGGAUGCCUCCAAA [A15G U31A A36U] | < 1e-05 s⁻¹ |  |  |  | 
28 | AUAAAAGCGCCAGAGCUACAGAAAUGUAGAUGACGAGGAGAAGGUUUAUCUAAUUUUCGGCAGAUGCCUCCAAA [A15G U30A G41A G51U G62A] | < 1e-05 s⁻¹ |  |  |  | < 1e-05 s⁻¹
29 | AUAAAAGCGCCAGAUCUACAGAAAUGUAGUUGACGAGGAGGAGCUUUAUCGAAUUCUCGGCGGAUGCCUCCAAA [A15U G44C U56C] | < 1e-05 s⁻¹ | < 1e-05 s⁻¹ | < 1e-05 s⁻¹ | < 1e-05 s⁻¹ | < 1e-05 s⁻¹
30 | AUAAAAGCGCCAGAUCUACAGAAAUGUAGUUGACGAGGAGGAGGUUUAUCGAAUUUUCGGCGUAUGCCUCCAAA [A15U G63U] | < 1e-05 s⁻¹ | < 1e-05 s⁻¹ | < 1e-05 s⁻¹ | < 1e-05 s⁻¹ | 
31 | AUAAAAGCGCCAGAUCUACAGAAAUGUAGUUGAUGAGGAGGAGGUUUAUCGAAUUUUCGGCGGAUGCCUCCAAA [A15U C34U] | < 1e-05 s⁻¹ | < 1e-05 s⁻¹ | < 1e-05 s⁻¹ |  | < 1e-05 s⁻¹
32 | AUAAAAGCGCCAGAUCUACAGAAAUGUAGUUGACGAGGAUGAGGUUUAUCUAAUUUUCGGCGGAUGCCUCUAAA [A15U G40U G51U C71U] | < 1e-05 s⁻¹ |  |  |  | 
33 | AUAAAAGCGCCAGAUCUACAGAAAUGUAGUUGACGAGGAGGAGGUUUAUCCAAUUUUCGGCGGGUGCCUCCAAA [A15U G51C A64G] | < 1e-05 s⁻¹ |  |  |  | 
